Experimental data published in article PMC4829300 (RNA Biology, 2016).

How the values were obtained:
Prp43 92–767 = Prp43 92–767 (Saccharomyces cerevisiae, UniProt P53131); details: ATPase assay of the truncation; details in supplement
Prp43 1–657 = Prp43 1–657 (Saccharomyces cerevisiae, UniProt P53131); details: ATPase assay of the truncation; details in supplement
[1] = test system: Prp43;Cmg1 (Saccharomyces cerevisiae?;Saccharomyces cerevisiae?); assay: fluorescence anisotropy
Prp43 = assay: fluorescence anisotropy
His-GFP-tagged Prp43 = His-GFP-tagged Prp43 (S. cerevisiae, UniProt P53131 1-767); assay: pull-down
Sequence of His-GFP-tagged Prp43 (P53131 whole entry): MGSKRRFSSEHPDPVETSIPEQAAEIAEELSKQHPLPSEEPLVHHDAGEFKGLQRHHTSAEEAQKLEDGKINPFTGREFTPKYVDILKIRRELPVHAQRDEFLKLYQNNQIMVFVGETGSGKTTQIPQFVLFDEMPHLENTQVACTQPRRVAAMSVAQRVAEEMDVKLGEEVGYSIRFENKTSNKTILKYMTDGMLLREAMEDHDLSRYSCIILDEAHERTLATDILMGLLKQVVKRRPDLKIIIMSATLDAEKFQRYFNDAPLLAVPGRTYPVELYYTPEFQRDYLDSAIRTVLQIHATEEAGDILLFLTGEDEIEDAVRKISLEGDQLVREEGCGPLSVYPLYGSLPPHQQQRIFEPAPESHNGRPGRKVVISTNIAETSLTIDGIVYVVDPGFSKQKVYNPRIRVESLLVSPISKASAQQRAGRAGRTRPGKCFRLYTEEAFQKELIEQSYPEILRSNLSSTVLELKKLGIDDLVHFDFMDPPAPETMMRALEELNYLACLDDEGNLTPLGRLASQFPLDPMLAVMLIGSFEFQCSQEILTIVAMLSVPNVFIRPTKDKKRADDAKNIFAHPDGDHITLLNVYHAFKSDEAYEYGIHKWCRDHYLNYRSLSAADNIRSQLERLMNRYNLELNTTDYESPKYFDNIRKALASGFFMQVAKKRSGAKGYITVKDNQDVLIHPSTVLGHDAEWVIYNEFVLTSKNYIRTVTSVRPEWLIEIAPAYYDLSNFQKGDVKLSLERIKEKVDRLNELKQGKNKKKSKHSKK

[2] = target: His10-ZZ-TEV-tagged full length Prp43 (S. cerevisiae, UniProt P53131 1-767); assay: pull-down
Sequence of His10-ZZ-TEV-tagged full length Prp43 (P53131 whole entry): as above

Sequence of Prp43 92–767 (P53131 92-767): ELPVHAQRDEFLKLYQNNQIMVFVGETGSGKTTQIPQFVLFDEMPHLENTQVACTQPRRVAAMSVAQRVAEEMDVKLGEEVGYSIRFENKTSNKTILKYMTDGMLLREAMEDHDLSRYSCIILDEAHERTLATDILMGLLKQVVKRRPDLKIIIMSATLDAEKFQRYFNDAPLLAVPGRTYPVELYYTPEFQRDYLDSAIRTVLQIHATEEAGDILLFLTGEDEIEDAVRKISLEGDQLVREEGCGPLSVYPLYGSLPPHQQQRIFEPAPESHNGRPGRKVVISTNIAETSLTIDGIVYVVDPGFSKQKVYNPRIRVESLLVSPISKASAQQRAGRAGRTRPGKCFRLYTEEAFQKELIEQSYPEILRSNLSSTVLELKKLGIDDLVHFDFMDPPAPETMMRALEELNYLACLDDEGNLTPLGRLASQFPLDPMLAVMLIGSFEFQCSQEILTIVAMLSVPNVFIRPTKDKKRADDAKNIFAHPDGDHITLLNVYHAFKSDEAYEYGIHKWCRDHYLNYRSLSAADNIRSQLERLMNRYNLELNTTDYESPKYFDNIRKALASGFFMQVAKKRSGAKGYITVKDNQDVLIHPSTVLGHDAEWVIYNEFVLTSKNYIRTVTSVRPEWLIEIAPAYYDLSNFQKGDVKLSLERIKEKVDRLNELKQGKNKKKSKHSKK
Sequence of Prp43 1–657 (P53131 1-657): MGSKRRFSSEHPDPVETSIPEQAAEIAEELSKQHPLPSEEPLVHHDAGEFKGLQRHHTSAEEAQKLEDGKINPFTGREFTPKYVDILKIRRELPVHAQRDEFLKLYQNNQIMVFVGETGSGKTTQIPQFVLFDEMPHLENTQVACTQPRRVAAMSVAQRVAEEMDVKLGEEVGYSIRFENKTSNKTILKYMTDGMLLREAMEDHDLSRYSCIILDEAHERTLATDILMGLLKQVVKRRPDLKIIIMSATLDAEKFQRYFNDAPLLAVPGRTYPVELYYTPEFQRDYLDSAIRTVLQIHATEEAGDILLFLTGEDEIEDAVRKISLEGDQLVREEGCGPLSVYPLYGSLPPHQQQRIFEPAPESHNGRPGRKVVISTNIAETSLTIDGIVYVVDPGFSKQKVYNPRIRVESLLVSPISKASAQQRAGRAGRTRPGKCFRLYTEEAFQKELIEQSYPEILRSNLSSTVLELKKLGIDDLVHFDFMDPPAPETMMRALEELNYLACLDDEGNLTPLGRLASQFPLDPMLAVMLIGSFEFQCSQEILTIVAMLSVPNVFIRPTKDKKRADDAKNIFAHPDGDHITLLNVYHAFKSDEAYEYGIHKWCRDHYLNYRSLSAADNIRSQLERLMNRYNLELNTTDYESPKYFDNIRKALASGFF

Molecule: Nc1ncnc2c1ncn2[C@@H]1O[C@H](COP(=O)(O)OP(=O)(O)OP(=O)(O)O)[C@@H](O)[C@H]1O [ATP]
- NADH-coupled ATPase assay (pyruvate kinase / LDH), A340 (Prp43 92–767): the N- and C-terminal truncations of Prp43 themselves show ATPase activity
- NADH-coupled ATPase assay (pyruvate kinase / LDH), A340 (Prp43 1–657): the N- and C-terminal truncations of Prp43 themselves show ATPase activity

Molecule: fluorescein-labeled 11 nt RNA
- Kd [1]: 2.3 nM
- Kd (Prp43): 60 nM

B1: His10-ZZ-TEV-tagged Spp382 G-patch domain (amino acids 51–110) (domain or fragment)
chain: NAPTISKLTKTYGIGAKLLSSMGYVAGKGLGKDGSGITTPIETQSRPMHNAGLGMFSNTN
- binding result (His-GFP-tagged Prp43): binds

B2: His10-MBP-TEV-tagged Sqs1 705–767 (domain or fragment)
chain: VKEGEIVGQNAPEIGNENIGRRMLEKLGWKSGEGLGIQGNKGISEPIFAKIKKNRSGLRHSES
- binding result (His-GFP-tagged Prp43): binds

B3: His10-MBP-TEV-tagged Pxr1 1–82 (domain or fragment)
chain: MGLAATRTKQRFGLDPRNTAWSNDTSRFGHQFLEKFGWKPGMGLGLSPMNSNTSHIKVSIKDDNVGLGAKLKRKDKKDEFDN
- binding result (His-GFP-tagged Prp43): binds

B4: His10-MBP-TEV-tagged Cmg1 1–85 (domain or fragment)
chain: MEESKTKRKEDRIDLKNTPPQKKSKRDSTNDETARTSLRSIMPRGYKMMENMGYKEGETLGSNESALKEPIKVEINTKRRGIRAE
- binding result [2]: binds
- binding result (His-GFP-tagged Prp43): binds

B5: His10-ZZ-TEV-tagged Cmg1 (natural protein)
chain: MEESKTKRKEDRIDLKNTPPQKKSKRDSTNDETARTSLRSIMPRGYKMMENMGYKEGETLGSNESALKEPIKVEINTKRRGIRAEKPDPSTMNDMQMSEQRFIKRESEMKNNKRLKKIWYRIQKVAFEMMGDSDLYNPGEDPRDFNVLWRSYVMQLNEEVAKNDLNNHSNNDNEDKNNMIPMVNESLEASPAIKGEKFGRPSTLIDCDTSIIGSRITKDTELAELEELSIEKRITKLNIFLRSEKYYCFFCGIKYKDEGDLYEHCPGVNEDDHK
- binding result (His-GFP-tagged Prp43): binds

B6: MBP-tagged full length Cmg1 (natural protein)
chain: B5 chain
- binding result [2]: binds
